Results as given in article PMC11995519, “Structural insights into the human NuA4/TIP60 acetyltransferase and chromatin remodeling complex” (Science (New York, N.Y.), 2024).

Biological target: T1, transformation/transcription domain-associated protein (TRRAP) (human (endogenous in K562), UniProt Q9Y4A5 1-3859)
T1 construct: transformation/transcription domain-associated protein (TRRAP), human; also called TRRAP module; source: endogenous, K562 extract; co-purified with tagged EP400 constructs
Assay: cryo-EM structure; TRRAP-EP400Cter purified by the tagged EP400 truncation 2188-3159, glutaraldehyde cross-linked; 3.4 Å
Details: both partners purified

T1 sequence (Q9Y4A5 whole entry, the tested form may be a part): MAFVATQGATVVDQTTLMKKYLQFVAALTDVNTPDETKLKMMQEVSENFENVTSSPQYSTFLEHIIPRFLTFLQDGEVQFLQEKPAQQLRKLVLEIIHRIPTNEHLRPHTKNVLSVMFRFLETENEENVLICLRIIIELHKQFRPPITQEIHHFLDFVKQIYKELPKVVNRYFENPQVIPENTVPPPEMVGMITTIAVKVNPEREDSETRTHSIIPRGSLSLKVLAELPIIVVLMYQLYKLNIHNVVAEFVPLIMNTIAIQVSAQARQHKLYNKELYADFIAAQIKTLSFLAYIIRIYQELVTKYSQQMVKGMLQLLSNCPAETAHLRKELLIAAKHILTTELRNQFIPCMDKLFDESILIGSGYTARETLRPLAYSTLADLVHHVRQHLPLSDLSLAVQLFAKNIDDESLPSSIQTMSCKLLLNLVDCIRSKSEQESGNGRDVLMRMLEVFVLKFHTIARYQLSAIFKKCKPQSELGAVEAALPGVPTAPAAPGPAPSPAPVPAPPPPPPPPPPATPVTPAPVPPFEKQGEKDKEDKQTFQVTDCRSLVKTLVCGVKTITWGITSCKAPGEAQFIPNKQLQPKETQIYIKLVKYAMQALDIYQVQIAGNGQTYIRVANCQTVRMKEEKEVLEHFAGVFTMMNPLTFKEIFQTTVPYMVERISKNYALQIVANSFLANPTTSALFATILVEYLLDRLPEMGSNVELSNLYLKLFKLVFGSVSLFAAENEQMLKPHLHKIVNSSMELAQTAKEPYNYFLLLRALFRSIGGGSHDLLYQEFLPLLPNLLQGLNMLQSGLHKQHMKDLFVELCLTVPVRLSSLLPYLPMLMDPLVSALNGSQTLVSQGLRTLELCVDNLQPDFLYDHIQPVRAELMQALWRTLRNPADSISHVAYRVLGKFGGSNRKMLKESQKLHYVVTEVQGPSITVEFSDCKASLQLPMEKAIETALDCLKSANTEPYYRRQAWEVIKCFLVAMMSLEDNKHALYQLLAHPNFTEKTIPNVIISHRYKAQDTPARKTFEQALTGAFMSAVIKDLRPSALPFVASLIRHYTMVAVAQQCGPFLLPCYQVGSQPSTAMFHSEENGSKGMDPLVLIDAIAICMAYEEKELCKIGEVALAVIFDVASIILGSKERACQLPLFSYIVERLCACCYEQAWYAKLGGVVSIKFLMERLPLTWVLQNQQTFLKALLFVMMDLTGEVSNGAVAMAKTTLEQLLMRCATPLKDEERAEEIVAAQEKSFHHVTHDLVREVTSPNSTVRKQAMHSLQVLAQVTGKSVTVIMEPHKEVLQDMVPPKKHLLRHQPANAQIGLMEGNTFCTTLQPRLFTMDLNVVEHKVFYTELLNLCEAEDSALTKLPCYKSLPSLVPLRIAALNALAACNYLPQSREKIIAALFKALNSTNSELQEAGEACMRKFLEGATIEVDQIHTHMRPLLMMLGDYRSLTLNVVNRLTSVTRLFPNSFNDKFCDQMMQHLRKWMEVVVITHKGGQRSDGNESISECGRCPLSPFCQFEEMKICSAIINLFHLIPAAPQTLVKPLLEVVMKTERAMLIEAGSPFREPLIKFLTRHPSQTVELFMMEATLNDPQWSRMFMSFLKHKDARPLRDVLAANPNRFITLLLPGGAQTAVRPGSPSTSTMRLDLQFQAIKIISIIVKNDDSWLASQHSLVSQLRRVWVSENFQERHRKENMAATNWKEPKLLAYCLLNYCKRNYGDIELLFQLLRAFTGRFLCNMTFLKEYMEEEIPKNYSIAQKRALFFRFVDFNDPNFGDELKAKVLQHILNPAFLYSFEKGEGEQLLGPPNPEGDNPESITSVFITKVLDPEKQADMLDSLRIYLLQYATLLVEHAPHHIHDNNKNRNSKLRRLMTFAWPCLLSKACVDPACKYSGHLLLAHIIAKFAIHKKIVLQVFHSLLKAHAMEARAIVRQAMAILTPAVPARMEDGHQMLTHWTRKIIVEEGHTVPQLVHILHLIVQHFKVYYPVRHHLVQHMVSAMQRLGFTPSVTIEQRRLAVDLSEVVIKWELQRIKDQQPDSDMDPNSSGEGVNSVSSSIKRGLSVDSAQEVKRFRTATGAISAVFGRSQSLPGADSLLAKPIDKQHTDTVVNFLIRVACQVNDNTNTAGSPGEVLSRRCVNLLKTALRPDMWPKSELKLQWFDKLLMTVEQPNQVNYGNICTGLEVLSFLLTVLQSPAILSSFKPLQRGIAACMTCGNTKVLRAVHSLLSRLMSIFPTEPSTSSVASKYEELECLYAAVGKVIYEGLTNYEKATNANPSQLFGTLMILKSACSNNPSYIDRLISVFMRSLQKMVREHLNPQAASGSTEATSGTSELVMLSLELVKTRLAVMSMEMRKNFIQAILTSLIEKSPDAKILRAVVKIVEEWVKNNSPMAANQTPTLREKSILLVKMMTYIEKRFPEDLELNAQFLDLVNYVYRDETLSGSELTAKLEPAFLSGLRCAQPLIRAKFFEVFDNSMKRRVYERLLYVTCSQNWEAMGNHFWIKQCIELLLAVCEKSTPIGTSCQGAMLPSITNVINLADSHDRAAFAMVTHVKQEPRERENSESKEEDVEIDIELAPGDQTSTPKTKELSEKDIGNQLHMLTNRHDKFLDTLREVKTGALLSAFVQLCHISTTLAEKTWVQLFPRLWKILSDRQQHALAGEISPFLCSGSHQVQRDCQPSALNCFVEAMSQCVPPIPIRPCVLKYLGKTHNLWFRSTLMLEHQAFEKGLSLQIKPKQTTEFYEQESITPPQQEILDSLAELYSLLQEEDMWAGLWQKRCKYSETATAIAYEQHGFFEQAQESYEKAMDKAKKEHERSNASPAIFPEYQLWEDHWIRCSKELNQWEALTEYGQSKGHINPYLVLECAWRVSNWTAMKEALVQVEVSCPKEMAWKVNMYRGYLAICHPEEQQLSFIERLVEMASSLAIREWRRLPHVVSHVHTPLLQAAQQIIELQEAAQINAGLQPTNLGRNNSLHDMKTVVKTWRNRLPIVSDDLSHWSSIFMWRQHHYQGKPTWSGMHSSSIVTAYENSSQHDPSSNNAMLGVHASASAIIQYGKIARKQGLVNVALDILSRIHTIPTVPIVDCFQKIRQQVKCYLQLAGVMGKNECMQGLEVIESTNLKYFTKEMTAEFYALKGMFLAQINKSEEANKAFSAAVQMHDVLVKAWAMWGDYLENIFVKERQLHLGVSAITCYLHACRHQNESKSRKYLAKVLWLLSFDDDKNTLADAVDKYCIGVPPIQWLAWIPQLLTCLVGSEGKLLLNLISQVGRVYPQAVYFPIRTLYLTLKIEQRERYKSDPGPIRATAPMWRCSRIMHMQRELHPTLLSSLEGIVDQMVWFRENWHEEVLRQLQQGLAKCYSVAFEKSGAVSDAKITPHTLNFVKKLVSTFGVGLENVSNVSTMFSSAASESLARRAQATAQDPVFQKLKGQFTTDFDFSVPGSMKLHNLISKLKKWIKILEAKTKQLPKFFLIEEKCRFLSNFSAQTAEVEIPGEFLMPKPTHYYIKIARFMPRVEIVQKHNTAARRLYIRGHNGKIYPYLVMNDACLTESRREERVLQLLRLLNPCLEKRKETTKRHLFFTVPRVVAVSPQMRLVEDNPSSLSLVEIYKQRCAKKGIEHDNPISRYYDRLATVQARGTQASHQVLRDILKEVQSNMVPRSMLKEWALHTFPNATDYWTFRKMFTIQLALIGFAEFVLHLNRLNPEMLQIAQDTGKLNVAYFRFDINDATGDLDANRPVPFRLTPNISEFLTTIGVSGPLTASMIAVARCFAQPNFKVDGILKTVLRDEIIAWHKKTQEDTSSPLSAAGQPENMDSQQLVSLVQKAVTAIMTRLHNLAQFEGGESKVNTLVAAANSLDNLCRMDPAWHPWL

- binding result: binds
B1: tagged truncation of EP400 containing just the C terminus after the ATPase domain (amino acid 2188 to 3159) (domain or fragment, human, UniProt Q96L91 2188-3159, looked up)
chain: AVMTAVRAWEFWNLKTLQEREARLRLEQEEAELLTYTREDAYSMEYVYEDVDGQTEVMPLWTPPTPPQDDSDIYLDSVMCLMYEATPIPEAKLPPVYVRKERKRHKTDPSAAGRKKKQRHGEAVVPPRSLFDRATPGLLKIRREGKEQKKNILLKQQVPFAKPLPTFAKPTAEPGQDNPEWLISEDWALLQAVKQLLELPLNLTIVSPAHTPNWDLVSDVVNSCSRIYRSSKQCRNRYENVIIPREEGKSKNNRPLRTSQIYAQDENATHTQLYTSHFDLMKMTAGKRSPPIKPLLGMNPFQKNPKHASVLAESGINYDKPLPPIQVASLRAERIAKEKKALADQQKAQQPAVAQPPPPQPQPPPPPQQPPPPLPQPQAAGSQPPAGPPAVQPQPQPQPQTQPQPVQAPAKAQPAITTGGSAAVLAGTIKTSVTGTSMPTGAVSGNVIVNTIAGVPAATFQSINKRLASPVAPGALTTPGGSAPAQVVHTQPPPRAVGSPATATPDLVSMATTQGVRAVTSVTASAVVTTNLTPVQTPARSLVPQVSQATGVQLPGKTITPAHFQLLRQQQQQQQQQQQQQQQQQQQQQQQQQQQQQTTTTSQVQVPQIQGQAQSPAQIKAVGKLTPEHLIKMQKQKLQMPPQPPPPQAQSAPPQPTAQVQVQTSQPPQQQSPQLTTVTAPRPGALLTGTTVANLQVARLTRVPTSQLQAQGQMQTQAPQPAQVALAKPPVVSVPAAVVSSPGVTTLPMNVAGISVAIGQPQKAAGQTVVAQPVHMQQLLKLKQQAVQQQKAIQPQAAQGPAAVQQKITAQQITTPGAQQKVAYAAQPALKTQFLTTPISQAQKLAGAQQVQTQIQVAKLPQVVQQQTPVASIQQVASASQQASPQTVALTQATAAGQQVQMIPAVTATAQVVQQKLIQQQVVTTASAPLQTPGAPNPAQVPASSDSPSQQPKLQMRVPAVRLKTPTKPPCQ
notes: 137 residues (SANT and HD domains) are resolved; also called EP400Cter; C-terminal segment of EP400; source: new cell line expressing the tagged truncation
